Columns and labels:
Test in all cases: radioligand binding
[1] = molecular target: type III collagen, pepsinized
[2] = molecular target: type I collagen, pepsinized
[3] = molecular target: type II collagen, pepsinized

cpm bound [1]: 4940 cpm | cpm bound [2]: 5320 cpm | cpm bound [3]: 5320 cpm
Substance: human thrombospondin (TSP) (from UniProt P07996 19-1170) (natural protein)

From PMC2114473
